Measured values as given in patent publication EP4574844A1 (Numab Therapeutics AG, dated 2025).

How the values were obtained:
recombinant human LILRB2 = target: T1, recombinant human LILRB2 (human, UniProt Q8N423 22-460, limits assumed); experiment: SPR, antibody captured by anti-framework IgG, antigen as analyte (without avidity)
T1 construct: also called ILT4

[1] = target: T2, human LILRB2 on the cell surface (human, UniProt Q8N423 22-597); experiment: cell-based or functional assay
[2] = target: human PD-L1 on the cell surface (human, UniProt Q9NZQ7 19-290); experiment: cell-based or functional assay
[3] = target: T3, human CD47 on the cell surface (human, UniProt Q08722 19-323); experiment: cell-based or functional assay
recombinant human PDL1 = target: T4, recombinant human PDL1 (human, UniProt Q9NZQ7 19-238, limits assumed); experiment: SPR, antigen immobilised, antibody as analyte
T4 construct: SPR antigen; also called CD274; B7-H1

recombinant human CD47 [4] = target: T5, recombinant human CD47 (human, UniProt Q08722 19-139, limits assumed); experiment: SPR, antigen immobilised, antibody as analyte
[5] = target: T2, human LILRB2 on the cell surface; experiment: cell-based or functional assay; remark: listed apart in the source
[6] = target: T3, human CD47 on the cell surface; experiment: cell-based or functional assay; remark: listed apart in the source
[7] = target: T3, human CD47 on the cell surface; experiment: cell-based or functional assay; remark: listed apart in the source
[8] = target: T6, recombinant cynomolgus PDL1 (cynomolgus monkey, UniProt G7PSE7 19-238); experiment: SPR, antigen immobilised, antibody as analyte
T6 construct: also called cynom; PDL1

[9] = target: T7, recombinant cynomolgus CD47 (cynomolgus monkey, UniProt A0A2K5X523 19-139); experiment: SPR, antigen immobilised, antibody as analyte
T7 construct: also called cynom; CD47

recombinant human CD47 [10] = target: T5, recombinant human CD47; experiment: SPR, CD47 immobilised, scFv as analyte, 1:1 Langmuir

T2 sequence (Q8N423 22-597): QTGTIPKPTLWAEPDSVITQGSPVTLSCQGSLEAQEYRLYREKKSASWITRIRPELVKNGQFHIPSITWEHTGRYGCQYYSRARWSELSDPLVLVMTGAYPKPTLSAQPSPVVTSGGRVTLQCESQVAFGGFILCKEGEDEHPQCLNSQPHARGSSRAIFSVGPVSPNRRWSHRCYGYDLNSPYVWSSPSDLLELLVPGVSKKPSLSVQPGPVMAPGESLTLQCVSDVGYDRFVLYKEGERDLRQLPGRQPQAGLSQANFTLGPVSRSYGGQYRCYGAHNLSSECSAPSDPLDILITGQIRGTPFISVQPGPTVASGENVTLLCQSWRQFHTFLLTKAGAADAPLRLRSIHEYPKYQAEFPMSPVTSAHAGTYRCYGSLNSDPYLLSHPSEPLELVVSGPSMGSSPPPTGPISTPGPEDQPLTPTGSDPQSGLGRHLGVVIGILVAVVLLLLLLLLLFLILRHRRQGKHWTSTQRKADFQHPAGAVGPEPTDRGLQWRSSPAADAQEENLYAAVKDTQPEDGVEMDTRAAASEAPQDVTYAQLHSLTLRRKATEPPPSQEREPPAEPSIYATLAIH
T1 sequence (Q8N423 22-460 limits assumed): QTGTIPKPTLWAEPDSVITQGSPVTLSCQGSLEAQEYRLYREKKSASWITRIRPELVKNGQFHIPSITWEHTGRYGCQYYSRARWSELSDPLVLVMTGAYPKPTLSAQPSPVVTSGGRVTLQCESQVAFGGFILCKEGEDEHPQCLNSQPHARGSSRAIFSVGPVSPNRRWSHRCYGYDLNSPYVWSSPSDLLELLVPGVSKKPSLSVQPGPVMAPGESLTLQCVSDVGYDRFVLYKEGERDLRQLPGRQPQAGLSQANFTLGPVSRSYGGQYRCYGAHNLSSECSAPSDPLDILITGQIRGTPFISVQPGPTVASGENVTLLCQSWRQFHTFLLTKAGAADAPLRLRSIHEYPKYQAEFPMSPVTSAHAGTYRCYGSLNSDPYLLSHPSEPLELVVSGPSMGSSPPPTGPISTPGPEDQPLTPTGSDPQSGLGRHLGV
T6 sequence (G7PSE7 entry or part of it): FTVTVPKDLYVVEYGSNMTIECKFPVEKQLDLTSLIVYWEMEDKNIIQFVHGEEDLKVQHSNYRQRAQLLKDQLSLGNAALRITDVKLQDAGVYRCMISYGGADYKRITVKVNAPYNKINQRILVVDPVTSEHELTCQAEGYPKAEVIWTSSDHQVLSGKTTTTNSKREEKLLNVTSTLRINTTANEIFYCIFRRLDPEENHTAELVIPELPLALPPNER

Kd (recombinant human LILRB2)	koff (recombinant human LILRB2)	kon (recombinant human LILRB2)	CD86 EC50 [nM], re-polarization of M2 macrophages [1]	CD163 EC50 [nM], re-polarization of M2 macrophages [1]	CD206 EC50 [nM], re-polarization of M2 macrophages [1]	PD-L1 driven EC50 [nM], phagocytosis of H292 cells [2]	CD47 driven EC50 [nM], phagocytosis of H292 cells [3]	CD47 driven EC50 [nM], phagocytosis of RBCs [3]	Kd (recombinant human PDL1)	koff (recombinant human PDL1)	kon (recombinant human PDL1)	Kd (recombinant human CD47 [4])	koff (recombinant human CD47 [4])	kon (recombinant human CD47 [4])	IL-1β EC50 [nM], LPS-driven cytokine secretion [5]	IL-6 EC50 [nM], LPS-driven cytokine secretion [5]	TNF-α EC50 [nM], LPS-driven cytokine secretion [5]	CD47 driven EC50 [nM], phagocytosis of Nalm6 cells [6]	CD47 driven EC50 [nM], phagocytosis of A375 cells [7]	Binder	also measured
370 pM	8.9e-05 s⁻¹	240000 M⁻¹ s⁻¹	0.079 nM	0.067 nM	0.12 nM	0.32 nM	8.32 nM	39.4 nM	120 pM	0.000126 s⁻¹	1.05e+06 M⁻¹ s⁻¹	57200 pM	0.0256 s⁻¹	448000 M⁻¹ s⁻¹	0.096 nM	0.078 nM	0.123 nM	15.3 nM	–	PRO4672 (antibody, trispecific anti-PDL1 x CD47 x LILRB2, (scFv)2-Fc-(scFv)2, 37-20-B03-based PDL1-BD) chain 1: DVQMTQSPSSLSASVGDRVTITCQASQSISSWVSWYQQKPGKPPKLLIYRGGYLESGVPSRFSASGSGTDFTLTISSLQPEDFATYYCQSTDSSTYGGAFGCGTKVTVLGGGGGSGGGGSGGGGSGGGGSQQVVESGGGLVQPGGSLRLSCAVSGIDLNSYAMTWVRQAPGKCLEWIGYIGSASSTYYASWASGRFTISKDNSKNTVYLQMNSLRAEDSAVYFCARGSTYINIWGQGTLVKVSSEPKSSDKTHTCPPCPAPELLGGPSVFLFPPKPKDTLMISRTPEVTCVVVDVSHEDPEVKFNWYVDGVEVHNAKTKPREEQYNSTYRVVSVLTVLHQDWLNGKEYKCKVSNKALPAPIEKTISKAKGQPREPQVYTLPPCREEMTKNQVSLSCAVKGFYPSDIAVEWESNGQPENNYKTTPPVLDSDGSFFLVSKLTVDKSRWQQGNVFSCSVMHEALHNHYTQKSLSLSPGKGGGGSGGGGSDVQMTQSPSSLSASVGDRVTITCQASQSIGSNLAWYQQKPGKPPKLLIYKGGTLESGVPSRFSGSGSGTDFTLTISSLQPEDFATYYCQSTAGSSRSGNYGYVFGCGTKVTVLGGGGGSGGGGSGGGGSGGGGSQQLVESGGGLVQPGGSLRLSCAASGFSFTNNYYMCWVRQAPGKCLEWIACMLVGAWGNTYYASWANGRFTISKDNSKNTVYLQMNSLRAEDSAVYFCARARDYTWTLGGDPETSGFNLWGQGTLVKVSS chain 2: not shown	–
190 pM	5.4e-05 s⁻¹	290000 M⁻¹ s⁻¹	0.082 nM	0.073 nM	0.134 nM	0.2 nM	10.9 nM	39.8 nM	13 pM	2.9e-05 s⁻¹	2.3e+06 M⁻¹ s⁻¹	34000 pM	0.022 s⁻¹	660000 M⁻¹ s⁻¹	0.082 nM	0.077 nM	0.117 nM	–	19.3 nM	PRO5052 (antibody, trispecific anti-PDL1 x CD47 x LILRB2, (scFv)2-Fc-(scFv)2; also called PRO4672 with 33-03-G02-based PDL1-BD) chain 1: DVQMTQSPSSLSASVGDRVTITCQASQSISSWVSWYQQKPGKPPKLLIYRGGYLESGVPSRFSASGSGTDFTLTISSLQPEDFATYYCQSTDSSTYGGAFGCGTKVTVLGGGGGSGGGGSGGGGSGGGGSQQVVESGGGLVQPGGSLRLSCAVSGIDLNSYAMTWVRQAPGKCLEWIGYIGSASSTYYASWASGRFTISKDNSKNTVYLQMNSLRAEDSAVYFCARGSTYINIWGQGTLVKVSSEPKSSDKTHTCPPCPAPELLGGPSVFLFPPKPKDTLMISRTPEVTCVVVDVSHEDPEVKFNWYVDGVEVHNAKTKPREEQYNSTYRVVSVLTVLHQDWLNGKEYKCKVSNKALPAPIEKTISKAKGQPREPQVYTLPPCREEMTKNQVSLSCAVKGFYPSDIAVEWESNGQPENNYKTTPPVLDSDGSFFLVSKLTVDKSRWQQGNVFSCSVMHEALHNHYTQKSLSLSPGKGGGGSGGGGSDVQMTQSPSSLSASVGDRVTITCQASQSIGSNLAWYQQKPGKPPKLLIYKGGTLESGVPSRFSGSGSGTDFTLTISSLQPEDFATYYCQSTAGSSRSGNYGYVFGCGTKVTVLGGGGGSGGGGSGGGGSGGGGSQQLVESGGGLVQPGGSLRLSCAASGFSFTNNYYMCWVRQAPGKCLEWIACMLVGAWGNTYYASWANGRFTISKDNSKNTVYLQMNSLRAEDSAVYFCARARDYTWTLGGDPETSGFNLWGQGTLVKVSS chain 2: not shown	Kd [8]: 12 pM; Kd [9]: 32000 pM
–	–	–	–	–	–	–	–	–	–	–	–	–	–	–	–	–	–	–	–	PRO3703 (scFv, anti-CD47 scFv; also called 70-26-B04-sc03) scFv: DVQMTQSPSSLSASVGDRVTITCQASQSISSWVSWYQQKPGKPPKLLIYRGGYLESGVPSRFSASGSGTDFTLTISSLQPEDFATYYCQSTDSSTYGGAFGCGTKVTVLGGGGGSGGGGSGGGGSGGGGSQQVVESGGGLVQPGGSLRLSCAVSGIDLNSYAMTWVRQAPGKCLEWIGYIGSASSTYYASWASGRFTISKDNSKNTVYLQMNSLRAEDSAVYFCARGSTYINIWGQGTLVKVSS	Kd (recombinant human CD47 [10]): 11900 pM; koff (recombinant human CD47 [10]): 0.029 s⁻¹; kon (recombinant human CD47 [10]): 2.44e+06 M⁻¹ s⁻¹
–	–	–	–	–	–	–	1.82 nM	3 nM	–	–	–	–	–	–	–	–	–	0.99 nM	0.9 nM	PRO3851 (bispecific antibody, human IgG1, kappa, L234A L235A) heavy 1: not shown heavy 2: QVQLQESGGGLVQPGGSLRLSCAASAYTISRNSMGWFRQAPGKGLEGVAAIESDGSTSYSDSVKGRFTISLDNSKNTLYLEMNSLRAEDTAVYYCAAPKVGLGPRTALGHLAFMTLPALNYWGQGTLVTVSSGGGGSGGGGSGGGGSGGGGSQVQLQESGGGLVQPGGSLRLSCAASAYTISRNSMGWFRQAPGKGLEGVAAIESDGSTSYSDSVKGRFTISLDNSKNTLYLEMNSLRAEDTAVYYCAAPKVGLGPRTALGHLAFMTLPALNYWGQGTLVTVSSDKTHTCPPCPAPEAAGGPSVFLFPPKPKDTLMISRTPEVTCVVVDVSHEDPEVKFNWYVDGVEVHNAKTKPREEQYNSTYRVVSVLTVLHQDWLNGKEYKCKVSNKALPAPIEKTISKAKGQPREPQVCTLPPSRDELTKNQVSLSCAVKGFYPSDIAVEWESNGQPENNYKTTPPVLDSDGSFFLVSKLTVDKSRWQQGNVFSCSVMHEALHNHYTQKSLSLSPG light: DIQMTQSPSSVSASVGDRVTITCRASQGISRWLAWYQQKPGKAPKLLIYAASSLQSGVPSRFSGSGSGTDFTLTISSLQPEDFATYYCQQTVSFPITFGGGTKVEIKRTVAAPSVFIFPPSDEQLKSGTASVVCLLNNFYPREAKVQWKVDNALQSGNSQESVTEQDSKDSTYSLSSTLTLSKADYEKHKVYACEVTHQGLSSPVTKSFNRGEC	–
